# In patent publication US20250043302A1, “MUTATED HYDROXYPHENYLPYRUVATE DIOXYGENASE POLYPEPTIDE, AND CODING GENE AND USE THEREOF” (BEIJING DABEINONG BIOTECHNOLOGY CO., LTD., priority 2021, published 2025):
# B1: OsHPPDm-F372A-02: nucleotide sequence encoding Oryza sativa HPPD with F372A; vector DBN11755 (nucleic acid)
# DNA: ATGCCACCCACGCCAACACCAACGGCCACCACTGGTGCCGTCTCGGCCGCGGCAGCGGCCGGTGAGAATGCTGGTTTCAGGCTAGTCGGCCACCGCCGCTTCGTGAGGGCAAATCCAAGATCTGATCGGTTCCAAGCACTTGCTTTCCACCATGTTGAGCTGTGGTGCGCTGACGCCGCTTCAGCTGCCGGGAGGTTTGCTTTTGCTTTAGGGGCGCCGCTCGCCGCAAGGAGTGATCTTTCCACCGGAAATTCTGCTCATGCTTCTCTTCTACTTAGATCAGCAAGTGTTGCATTTCTGTTCACTGCACCTTATGGCGGAGACCATGGTGTCGGGGCCGATGCTGCAACAACAGCTAGCATACCATCATTTTCTCCCGGCGCCGCAAGAAGATTTGCAGCCGATCATGGCCTGGCAGTTCATGCTGTGGCATTGAGGGTCGCCGACGCGGCTGATGCGTTCCGCGCCAGCGTGGCTGCTGGAGCTAGGCCGGCGTTCCAGCCTGCTGACCTTGGGGGTGGATTTGGATTGGCGGAGGTTGAATTATATGGTGATGTTGTGCTCCGTTTTGTTTCCCATCCAGATGGTGCTGATGCTCCATTTCTACCTGGATTTGAAGGGGTGTCAAACCCCGGCGCGGTGGATTATGGACTGCGTCGATTTGATCACGTGGTAGGTAATGTTCCTGAGTTGGCTCCCGTGGCGGCCTACATTTCAGGCTTTACTGGCTTCCATGAATTTGCCGAGTTCACCGCGGAAGATGTGGGAACTGCTGAAAGTGGATTGAACTCTGTTGTCCTGGCGAACAATGCAGAGACTGTATTGCTCCCCTTGAATGAGCCTGTGCACGGCACCAAACGGCGATCTCAAATTCAGACATACCTCGACCACCACGGGGGCCCTGGTGTTCAGCATATTGCTCTAGCCAGCGACGACGTACTGGGAACACTGAGGGAGATGAGAGCCCGTTCCGCCATGGGTGGCTTTGAGTTTCTGGCCCCTCCGCCGCCAAACTACTACGACGGCGTCAGACGGCGGGCGGGTGACGTCTTGAGTGAGGAGCAGATCAATGAATGTCAAGAACTTGGGGTTCTTGTTGATAGAGATGATCAAGGAGTGCTCCTCCAAATAGCCACAAAACCTGTTGGCGACCGCCCGACCTTCTTCCTTGAAATGATCCAAAGGATCGGCTGCATGGAGAAGGATGAATCGGGCCAGGAGTACCAGAAGGGTGGGTGTGGTGGCTTTGGGAAGGGCAACTTCAGCGAGCTGTTCAAGTCAATTGAAGAATATGAAAAATCATTGGAGGCAAAGCAAGCTCCGACGGTGCAGGGAAGCTGA
# modifications: OsHPPDm-F372A-02 Nucleotide Sequence
# notes: vector DBN11755
# Assays:
# Assay type in all cases: in vivo
# [1] = system: Arabidopsis thaliana T1 plants; test: Topramezone tolerance of transgenic Arabidopsis thaliana T1 plants (spray, bleached leaf area grade, damage score); conditions: 7 DAT, Table 4; for Classification and statistics of the grade of pesticide damage: Grade 0 / Classification and statistics of the grade of pesticide damage: Grade 1 / Classification and statistics of the grade of pesticide damage: Grade 2 / Classification and statistics of the grade of pesticide damage: Grade 3: number of plants; for Scores: pesticide damage score 0-100
# Procedure, shortened: (§1)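 Damage was assessed by bleaching grade (0 none; 1 <50%; 2 >50%; 3 100% of leaf area) one week after spraying. Sprays on 18-day-old T1 and wild-type plants used field-rate multiples: topramezone 25–200, isoxaflutole 35–280, mesotrione 52.5–420 g ai/ha.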
# [2] = system: Arabidopsis thaliana T1 plants; test: Isoxaflutole tolerance of transgenic Arabidopsis thaliana T1 plants (spray, bleached leaf area grade, damage score); set-up: Scores (pesticide damage): scale not given here; conditions: spray, Arabidopsis thaliana T1 plants; for Classification and statistics of the grade of pesticide damage: Grade 0 (number of plants) / Classification and statistics of the grade of pesticide damage: Grade 1 (number of plants) / Classification and statistics of the grade of pesticide damage: Grade 2 (number of plants) / Classification and statistics of the grade of pesticide damage: Grade 3 (number of plants): 16 plants
# Procedure, shortened: as §1
# [3] = system: Arabidopsis thaliana T1 plants; test: Mesotrione tolerance of transgenic Arabidopsis thaliana T1 plants (spray, bleached leaf area grade, damage score); set-up: Scores: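 damage score 0-100 computed as Σ(N×S)/(T×M)×100 over grades 0-3 with higher meaning more damage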; conditions: Arabidopsis thaliana T1 plants; for Grade 0 (classification and statistics of the grade of pesticide damage; number of plants) / Grade 1 (classification and statistics of the grade of pesticide damage; number of plants) / Grade 2 (classification and statistics of the grade of pesticide damage; number of plants) / Grade 3 (classification and statistics of the grade of pesticide damage; number of plants): 16 plants
# Procedure, shortened: as §1
# [4] = isoxaflutole 35 g ai/ha (0.5x field concentration)
# [5] = isoxaflutole 70 g ai/ha (1x field concentration)
molecule,measurement,setting,value
B1,Classification and statistics of the grade of pesticide damage: Grade 0,[1]; topramezone 25 g ai/ha (1×),8
same,Classification and statistics of the grade of pesticide damage: Grade 1,[1]; topramezone 25 g ai/ha (1×),8
same,Classification and statistics of the grade of pesticide damage: Grade 2,[1]; topramezone 25 g ai/ha (1×),0
same,Classification and statistics of the grade of pesticide damage: Grade 3,[1]; topramezone 25 g ai/ha (1×),0
same,Classification and statistics of the grade of pesticide damage: Grade 0,[1]; topramezone 100 g ai/ha (4×),0
same,Classification and statistics of the grade of pesticide damage: Grade 1,[1]; topramezone 100 g ai/ha (4×),0
same,Classification and statistics of the grade of pesticide damage: Grade 2,[1]; topramezone 100 g ai/ha (4×),0
same,Classification and statistics of the grade of pesticide damage: Grade 3,[1]; topramezone 100 g ai/ha (4×),16
same,Scores,[1]; topramezone 25 g ai/ha (1×),17
same,Scores,[1]; topramezone 100 g ai/ha (4×),100
same,Resistance evaluation,[1]; topramezone 25 g ai/ha (1×),moderately
same,Resistance evaluation,[1]; topramezone 100 g ai/ha (4×),non-resistant (non-resistant plants (scores 68-100))
same,Resistance evaluation,[2]; [4],Poorly
same,Scores (pesticide damage),[2]; [4],52
same,Classification and statistics of the grade of pesticide damage: Grade 0 (number of plants),[2]; [4],0
same,Classification and statistics of the grade of pesticide damage: Grade 1 (number of plants),[2]; [4],8
same,Classification and statistics of the grade of pesticide damage: Grade 2 (number of plants),[2]; [4],7
same,Classification and statistics of the grade of pesticide damage: Grade 3 (number of plants),[2]; [4],1
same,Resistance evaluation,[2]; [5],Non-resistant
same,Scores (pesticide damage),[2]; [5],100
same,Classification and statistics of the grade of pesticide damage: Grade 0 (number of plants),[2]; [5],0
same,Classification and statistics of the grade of pesticide damage: Grade 1 (number of plants),[2]; [5],0
same,Classification and statistics of the grade of pesticide damage: Grade 2 (number of plants),[2]; [5],0
same,Classification and statistics of the grade of pesticide damage: Grade 3 (number of plants),[2]; [5],16
same,Resistance evaluation,[3]; mesotrione 52.5 g ai/ha,Poorly resistant
same,Scores,[3]; mesotrione 52.5 g ai/ha,63
same,Grade 0 (classification and statistics of the grade of pesticide damage; number of plants),[3]; mesotrione 52.5 g ai/ha,0
same,Grade 1 (classification and statistics of the grade of pesticide damage; number of plants),[3]; mesotrione 52.5 g ai/ha,5
same,Grade 2 (classification and statistics of the grade of pesticide damage; number of plants),[3]; mesotrione 52.5 g ai/ha,8
same,Grade 3 (classification and statistics of the grade of pesticide damage; number of plants),[3]; mesotrione 52.5 g ai/ha,3
same,Resistance evaluation,[3]; mesotrione 105 g ai/ha,Non-resistant
same,Scores,[3]; mesotrione 105 g ai/ha,100
same,Grade 0 (classification and statistics of the grade of pesticide damage; number of plants),[3]; mesotrione 105 g ai/ha,0
same,Grade 1 (classification and statistics of the grade of pesticide damage; number of plants),[3]; mesotrione 105 g ai/ha,0
same,Grade 2 (classification and statistics of the grade of pesticide damage; number of plants),[3]; mesotrione 105 g ai/ha,0
same,Grade 3 (classification and statistics of the grade of pesticide damage; number of plants),[3]; mesotrione 105 g ai/ha,16
